In PMC10897456, “B. subtilis MutS2 splits stalled ribosomes into subunits without mRNA cleavage” (The EMBO Journal, 2023):

How the values were obtained:
Assay in all cases: cryo-EM structure; reconstituted complex: His-MutS2 WT in tenfold excess over purified B. subtilis disomes, 50 mM HEPES/KOH pH 7.5, 75 mM KOAc, 5 mM Mg(OAc)2, 45 mM NH4Cl, 4 mM MgCl2, 1 mM MnCl2, 1 mM AMP-PNP, 30 °C for 1 h; 3.8 Å
Conditions in all cases: both partners purified
ribosomal protein uS7 = ribosomal protein uS7 (B. subtilis (endogenous in B. subtilis …, UniProt P21469 1-156))
ribosomal protein uS11 = ribosomal protein uS11 (B. subtilis (endogenous in B. subtilis …, UniProt P04969 1-131))
ribosomal protein uS10 = ribosomal protein uS10 (B. subtilis (endogenous in B. subtilis …, UniProt P21471 1-102))

- binding result (ribosomal protein uS7): binds
- binding result (ribosomal protein uS11): binds
- binding result (ribosomal protein uS10): binds
B1: His-MutS2 WT (recombinant B. subtilis MutS2) (natural protein)
chain: MQQKVLSALEFHKVKEQVIGHAASSLGKEMLLELKPSASIDEIKKQLDEVDEASDIIRLRGQAPFGGLVDIRGALRRAEIGSVLSPSEFTEISGLLYAVKQMKHFITQMAEDGVDIPLIHQHAEQLITLSDLERDINSCIDDHGEVLDHASETLRGIRTQLRTLESRVRDRLESMLRSSSASKMLSDTIVTIRNDRFVIPVKQEYRSSYGGIVHDTSSSGATLFIEPQAIVDMNNSLQQAKVKEKQEIERILRVLTEKTAEYTEELFLDLQVLQTLDFIFAKARYAKAVKATKPIMNDTGFIRLKKARHPLLPPDQVVANDIELGRDFSTIVITGPNTGGKTVTLKTLGLLTLMAQSGLHIPADEGSEAAVFEHVFADIGDEQSIEQSLSTFSSHMVNIVGILEQVNENSLVLFDELGAGTDPQEGAALAMSILDDVHRTNARVLATTHYPELKAYGYNREGVMNASVEFDIETLSPTYKLLIGVPGRSNAFEISKRLGLPDHIIGQAKSEMTAEHNEVDTMIASLEQSKKRAEEELSETESIRKEAEKLHKELQQQIIELNSKKDKMLEEAEQQAAEKVKAAMKEAEDIIHELRTIKEEHKSFKDHELINAKKRLEGAMPAFEKSKKPEKPKTQKRDFKPGDEVKVLTFGQKGTLLEKTGGNEWNVQIGILKMKVKEKDLEFIKSAPEPKKEKMITAVKGKDYHVSLELDLRGERYENALSRVEKYLDDAVLAGYPRVSIIHGKGTGALRKGVQDLLKNHRSVKSSRFGEAGEGGSGVTVVELK
notes: MutS2 of B. subtilis (87 kD); core/lever, clamp, P-loop ABC ATPase, KOW and SMR domains; SMR domain printed as residues 710-785; SEC: oligomer, consistent with a dimer or tetramer; the text calls it a homodimer on the disome; Only the KOW and SMR domains are resolved in the structure (AlphaFold2 models fitted as rigid bodies); also called RqcU; source: E. coli BL21(DE3), pET24d(+), purified …
